Assay results from paper PMC5021521, “Coordinated recruitment of Spir actin nucleators and myosin V motors to Rab11 vesicle membranes” (eLife, 2016).
Changes are numbered by the printed parent chain. Names may count otherwise.

How the values were obtained:
AcGFP-MyoVa-GTD = assay: FLIM-FRET at vesicle membranes in HeLa cells; format: cell-based, Mus musculus; conditions: AcGFP-MyoVa-GTD donor
Experimental: Fluorescence lifetimes were imaged with a commercial FLIM upgrade kit (PicoQuant, Berlin, Germany) attached to a confocal microscope LSM 880 (Zeiss, Jena, Germany) using a 440 nm pulsed laser diode at 20 MHz repetition rate. The fluorescence was detected using the Big.2-unit (Zeiss) fed into the TimeHarp 260 photon counting board (PicoQuant). Time series of FLIM images were recorded until bright pixels accumulated at least 1000 photon events. Before pixel wise fitting (Symphotime, 64-bit, version 2, PicoQuant), a region of interest was defined manually by setting a threshold for selecting pixels of high intensity (100–300 photon events per pixel). Fitting employed an exponential two-component model to 20 ns of the decay without binning. Lifetime images contained the color coded, intensity weighted average in each pixel.
For an improved automated selection of vesicular structures in cells, we followed a previously established semi-automated approach ([Austen et al., 2015]). Briefly, confocal imaging was done using a Leica TCS SP5 X confocal microscope equipped with a pulsed white light laser (WLL, 80 MHz repetition rate; NKT Photonics, Birkerod, Denmark), a FLIM X16 TCSPC detector (LaVision Biotec, Bielefeld, Germany) and a 63x water objective (HCX PL APO CS, NA = 1.2). A band-pass filter 514/30 (AHF Analysentechnik, Tübingen, Germany) was used to block acceptor emitted photons. Data analysis includes manual selection of the cytoplasmic regions followed by a threshold algorithm, segmenting high intensity regions based on spatial signal changes at varying levels. The custom-written MATLAB program ([Austen et al., 2015]) calculates the average FRET efficiency E according to E = 1−τDA/τD
with τD as the mean donor lifetime τDA as mean donor lifetime in presence of an acceptor fluorophore. E represents the entire ROI of a single cell. Here, fitting employed an exponential one-component fit to 10 ns of decay; the first 0.5 ns were omitted due to the instrumental response. […]

HeLa cells = assay: Subcellular localization by fluorescence microscopy; format: cell-based
Experimental: HeLa cells were seeded on microscope cover glasses and transfected with Myc-epitope-tagged Spir-2 proteins and fluorescently-tagged MyoV and Rab11 proteins as described above. Cells were fixed with paraformaldehyde (3.7% in 1x PBS) for 20 min at 4°C and subsequently permeabilized using 0.2% Triton X-100 (in 1x PBS) for 3.5 min, room temperature. Cells were incubated with anti-c-Myc antibody (9E10, mouse monoclonal, 2 µg/ml, Santa Cruz Biotechnology; RRID: AB_627268) for 1 hr at room temperature and conjugated anti-mouse secondary antibodies (Cy5; from donkey, 3.25 µg/ml, Dianova (RRID: AB_2340820) and TRITC; from donkey, 3.125 µg/ml, Dianova (RRID: AB_2340767)) for 1 hr at room temperature avoiding exposure to light. Finally, cells were mounted on microscope slides with Mowiol and analyzed with a Leica AF6000LX fluorescence microscope, equipped with a Leica HCX PL APO 63x/1.3 GLYC objective and a Leica DFC350 FX digital camera (1392 × 1040 pixels, 6.45 × 6.45 µm pixel size). 3D stacks were recorded and processed with the Leica deconvolution software module. In case of the MyoVa autoregulation/activation experiments, we quantified the MyoVa expression levels. […] In order to clearly distinguish between vesicular and cytoplasmic MyoVa localization, we imaged either high or low expressing cells and determined the sum of pixel gray values per cell as a measure for the MyoVa expression levels. Based on that, we only used cells for the autoregulation analysis having a sum of pixel gray values less than 20 × 10^6 for the expression of GFP-MyoVa-D-FL. Images were recorded using the Leica LASX software and further processed with Adobe Photoshop and subsequently assembled with Adobe Illustrator.

[1] = tested on: Spir-2:MyoVa:Rab11 tripartite complex; assay: Analytical gel filtration; format: binding, Homo sapiens; conditions: Superdex 200 10/30; 50 mM Tris pH 8.0, 150 mM NaCl, 2 mM MgCl2, 2 mM TCEP
Experimental: Complex formations were analyzed by analytical gel-filtration using Superdex 200 10/30 Increase column (GE Healthcare Life Sciences) and UV light absorbance at 280 nm and 260 nm and Visible light absorbance at 587 nm at flow rate of 0.75 ml/min in 50 mM Tris pH 8.0, 150 mM NaCl, 2 mM MgCl2, 2 mM TCEP buffer. Fractions of 500 µl were collected and analyzed by SDS-PAGE.
A 100 µl sample of His6-Rab11a-1-173-Q70L at 6 mg/ml, or of MyoVa-GTD at 5 mg/ml or of His6-mCherry-Spir-2-linker at 6 mg/ml were centrifuged at 10,000 x g for 10 min and injected into the column to monitor reference elution profiles of the individual proteins. The proteins were mixed pairwise to the same final concentrations and incubated 30 min at 4°C in a total volume of 100 µl. The two-component complexes (His6-mCherry-Spir-2-linker:MyoVa-GTD and MyoVa-GTD:His6-Rab11a-1-173-Q70L) were confirmed by the elution peak shifts and SDS-PAGE analysis. […] The tripartite His6-mCherry-Spir-2-linker:MyoVa-GTD:His6-Rab11a-1-173-Q70L complex was analyzed at the same concentration of the individual components and confirmed by SDS-PAGE.

MyoVa-GTD = molecular target: T1, MyoVa-GTD (Homo sapiens, UniProt Q9Y4I1); assay: Surface plasmon resonance, Rab11a captured; format: binding
T1 construct: aa 1461 - 1853 (BamHI / XhoI); His6 (6xHis) with rTEV site (N, cleaved yes); made in house; host or cells: Escherichia coli BL21(DE3) or BL21-CodonPlus-RILP
Experimental: The assays were carried out at 25°C in buffer (50 mM Hepes pH 7.5, 100 mM NaCl, 2 mM MgCl2, 1 mM TCEP). 200–250 resonance units (RU; 1RU ≈ 1 pg × mm^−2) of Rab11a-Q70L(GTP) or Rab11-wt(GDP) were captured through their His6-tag on the surface of a NTA sensorchip using a Biacore 2000 instrument (GE Healthcare Life Sciences). MyoVa-GTD or MyoVb-GTD (10 nM–5 µM) were then injected over the tethered Rabs for one minute at a flow rate of […]. The surface was regenerated with a 2-min 0.3 M EDTA incubation and a 1-min 0.1% SDS wash. The real-time interaction profiles were double referenced using the Scrubber 2.0 software (BioLogic Software, Campbell, Australia), both the signals from a reference surface (with a non-relevant protein captured on NTA) and from blank experiments using buffer instead of MyoV-GTD were subtracted. The MyoV-GTD concentration-dependence of the steady-state SPR signals was then analyzed to determine the dissociation equilibrium constants (Kd) of the different complexes using the numerical integration algorithm software Biaevaluation 4.1. Each experiment (10 point 2-fold dilution concentration series each) was repeated in triplicate, yielding mean Kd values and standard errors (SEM).

T1 sequence (Q9Y4I1 1463-1855): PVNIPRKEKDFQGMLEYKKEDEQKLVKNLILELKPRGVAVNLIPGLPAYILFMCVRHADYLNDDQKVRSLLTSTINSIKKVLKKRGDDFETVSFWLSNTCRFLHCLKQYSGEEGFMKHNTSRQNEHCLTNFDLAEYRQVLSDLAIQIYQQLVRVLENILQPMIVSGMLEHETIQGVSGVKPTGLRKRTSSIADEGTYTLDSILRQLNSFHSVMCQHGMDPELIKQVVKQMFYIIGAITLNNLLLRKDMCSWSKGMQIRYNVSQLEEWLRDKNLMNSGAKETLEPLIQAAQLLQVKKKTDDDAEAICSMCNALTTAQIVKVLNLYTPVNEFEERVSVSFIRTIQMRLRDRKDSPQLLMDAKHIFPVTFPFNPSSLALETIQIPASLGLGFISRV

B1: mStrawberry-Spir-2-SB-FYVE: mStrawberry-hs-Spir2-SB-FYVE aa 438 - 714 (protein)
chain: DRSFSEHDLAQLRSEVASGLQSATHPPGGTEPPRPRAGSAHVWRPGSRDQGTCPASVSDPSHPLLSNRGSSGDRPEASMTPDAKHLWLEFSHPVESLALTVEEVMDVRRVLVKAEMEKFLQNKELFSSLKKGKICCCCRAKFPLFSWPPSCLFCKRAVCTSCSIKMKMPSKKFGHIPVYTLGFESPQRVSAAKTAPIQRRDIFQSLQGPQWQSVEEAFPHIYSHGCVLKDVCSECTSFVADVVRSSRKSVDVLNTTPRRSRQTQSLYIPNTRTLDFK
modifications: left off: mStrawberry, end not stated, kept
AcGFP-MyoVa-GTD
  fluorescence lifetime / FRET result in words: did not alter the lifetime

B2: Myc-Spir-2-KIND-WH2-GTBM: Myc-hs-Spir2-KIND-WH2-GTBM aa 2 - 437 (protein, UniProt Q8WWL2 2-437, looked up, fragment)
chain: ARAGSCGGAAAGAGRPEPWELSLEEVLKAYEQPLNEEQAWAVCFQGCRGLRGSPGRRLRDTGDLLLRGDGSVGAREPEAAEPATMVVPLASSEAQTVQSLGFAIYRALDWGLDESEERELSPQLERLIDLMANNDSEDSGCGAADEGYGGPEEEEEAEGVPRSVRTFAQAMRLCAARLTDPRGAQAHYQAVCRALFVETLELRAFLARVREAKEMLQKLREDEPHLETPRAELDSLGHTDWARLWVQLMRELRRGVKLKKVQEQEFNPLPTEFQLTPFEMLMQDIRARNYKLRKVMVDGDIPPRVKKDAHELILDFIRSRPPLKQVSERRLRPLPPKQRSLHEKILEEIKQERRLRPVRGEGWAARGFGSLPCILNACSGDAKSTSCINLSVTDAGGSAQRPRPRVLLKAPTLAEMEEMNTSEEEESPCGEVTLKR
modifications: Myc tag
HeLa cells; co-expression of eGFP-MyoVa-FL and N-terminal Spir-2 fragment
  subcellular localization in words: both proteins localize to vesicle membranes
HeLa cells; single expression
  subcellular localization in words: even cytoplasmic and nuclear localization

B3: Rab11a-Q70L: hs-Rab11a-Q70L aa 1 - 173, GTP-locked mutant (protein)
chain: MGTRDDEYDYLFKVVLIGDSGVGKSNLLSRFTRNEFNLESKSTIGVEFATRSIQVDGKTIKAQIWDTAGLERYRAITSAYYRGAVGALLVYDIAKHLTYENVERWLKELRDHADSNIVIMLVGNKSDLRHLRAVPTDEARAFAEKNGLSFIETSALDSTNVEAAFQTILTEIY
modifications: left off: His6, N-terminal, kept
notes: hs-Rab11a-Q70L aa 1 - 173, GTP-locked mutant
[1]
  co-elution in gel filtration in words: co-elution of all three proteins

B4: mStrawberry-Spir-2-GTBM-SB-FYVE: mStrawberry-hs-Spir2-GTBM-SB-FYVE aa 361 - 714 (protein)
chain: GEGWAARGFGSLPCILNACSGDAKSTSCINLSVTDAGGSAQRPRPRVLLKAPTLAEMEEMNTSEEEESPCGEVTLKRDRSFSEHDLAQLRSEVASGLQSATHPPGGTEPPRPRAGSAHVWRPGSRDQGTCPASVSDPSHPLLSNRGSSGDRPEASMTPDAKHLWLEFSHPVESLALTVEEVMDVRRVLVKAEMEKFLQNKELFSSLKKGKICCCCRAKFPLFSWPPSCLFCKRAVCTSCSIKMKMPSKKFGHIPVYTLGFESPQRVSAAKTAPIQRRDIFQSLQGPQWQSVEEAFPHIYSHGCVLKDVCSECTSFVADVVRSSRKSVDVLNTTPRRSRQTQSLYIPNTRTLDFK
modifications: left off: mStrawberry, end not stated, kept
AcGFP-MyoVa-GTD
  fluorescence lifetime / FRET result in words: able to reduce the fluorescence lifetime

B5: Spir-2-GTBM-SB-FYVE-LALA: mStrawberry-hs-Spir2-GTBM-SB-FYVE-L408A,L409A (protein)
chain: B4 chain with L48A, L49A
modifications: left off: mStrawberry, end not stated, kept
notes: mStrawberry-hs-Spir2-GTBM-SB-FYVE-L408A,L409A
AcGFP-MyoVa-GTD
  fluorescence lifetime / FRET result in words: did not alter the lifetime

B6: Rab11GDP: Rab11-wt(GDP) captured through its His6-tag (protein)
chain: MGTRDDEYDYLFKVVLIGDSGVGKSNLLSRFTRNEFNLESKSTIGVEFATRSIQVDGKTIKAQIWDTAGQERYRAITSAYYRGAVGALLVYDIAKHLTYENVERWLKELRDHADSNIVIMLVGNKSDLRHLRAVPTDEARAFAEKNGLSFIETSALDSTNVEAAFQTILTEIYRIVS
modifications: left off: His6, N-terminal, kept
notes: Rab11-wt(GDP) captured through its His6-tag
MyoVa-GTD; MyoVa-GTD 10 nM–5 µM over captured Rab11a-Q70L(GTP) or Rab11-wt(GDP), 50 mM Hepes pH 7.5, 100 mM NaCl, 2 mM MgCl2, 1 mM TCEP, 25°C, steady state, mean ± SEM, N = 3, read-out: dissociation equilibrium constant (Kd)
  Kd: 2620 ± 490 nM
MyoVa-GTD; Rab11-GDP for MyoVa
  affinity in words: relatively high affinity
